Experimental data: publication PMC11257959

Tested on: NG-RYBP R47A/R53A/R56A (Homo sapiens)
Experiment: EMSA
Details: apparent Kd, n=3; value assigned by fourfold loss; H2A K119 monoubiquitinated histone; DNA unmodified; EMSA: 25 mM Tris-HCl pH 7.5, 50 mM NaCl, 0.05% Tween 20, 5 mM MgCl2, 4% glycerol, 0.2 nM nucleosome, 10 min on ice, 1% agarose 0.4x TBE; cryo-EM binding: 50 mM …

## NucH2Aub1 (EMSA, 201 bp 601)
  Kd: 10 nM
